This data set concerns the target T1, P3L (nucleolin RRM2-derived peptide) (UniProt P19338).
T1 sequence: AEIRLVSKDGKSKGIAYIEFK
The experiment in a line: ITC. As to conditions: 20 mM MOPS pH 7.0, 300 mM NaCl, 25 C.

Where the note is “one-site model, CD also showed structural change on RNA addition (FIG. 2)”, SCA2CAG72 RNA returned a Kd of 0.66 µM.

For the substance SCA2CAG42 RNA, where the note is “unit inferred, uM from context”, the Kd amounted to 5.6 µM.

The substance SCA2CAG22 RNA (unexpanded) showed a Kd (unexpanded repeat) of 17.3 µM.

SCA2CAG55 RNA showed a Kd (unit inferred, uM from context) of 4.83 µM.

Source of the values: patent US20170233442.
